Reference: PMC6796740

Target: human transferrin receptor (hTfR, hTfR1) extracellular domain (Homo sapiens, UniProt P02786 89-760)
Experiment: SPR

Sequence of human transferrin receptor (hTfR, hTfR1) extracellular domain (P02786 89-760): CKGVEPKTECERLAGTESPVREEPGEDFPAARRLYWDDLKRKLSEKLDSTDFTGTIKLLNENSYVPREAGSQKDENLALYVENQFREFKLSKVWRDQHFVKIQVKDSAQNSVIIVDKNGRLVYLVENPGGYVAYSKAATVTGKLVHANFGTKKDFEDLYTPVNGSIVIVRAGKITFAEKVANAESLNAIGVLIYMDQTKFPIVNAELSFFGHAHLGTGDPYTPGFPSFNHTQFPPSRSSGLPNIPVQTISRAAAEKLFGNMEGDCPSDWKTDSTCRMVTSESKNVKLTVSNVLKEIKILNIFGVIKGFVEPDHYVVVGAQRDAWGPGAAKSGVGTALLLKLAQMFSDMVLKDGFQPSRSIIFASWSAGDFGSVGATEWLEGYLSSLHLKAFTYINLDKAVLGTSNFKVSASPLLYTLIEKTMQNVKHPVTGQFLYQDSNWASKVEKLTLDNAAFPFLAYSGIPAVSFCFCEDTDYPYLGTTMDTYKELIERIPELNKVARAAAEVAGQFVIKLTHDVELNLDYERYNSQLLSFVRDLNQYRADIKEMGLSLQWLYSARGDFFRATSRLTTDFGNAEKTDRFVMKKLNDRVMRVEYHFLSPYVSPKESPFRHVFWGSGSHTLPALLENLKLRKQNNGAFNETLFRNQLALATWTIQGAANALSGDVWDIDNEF

| Binder | binding result |
| --- | --- |
| GCUCAAUGCGUUCACGUUUAUUCACAUUUUUGAAUUGAGC (structured_RNA, 2'-F pyrimidines presumed, not restated for truncates) [TR14 ST1-1 (40 nt)] | no binding |
| AAUGCGUUCACGUUUAUUCACAUUUUUGAAUU (structured_RNA, 2'-F pyrimidines presumed, not restated for truncates) [TR14 ST1-2 (32 nt)] | no binding |
